The record followed here is patent US20230287433, “APTAMERS FOR PERSONAL HEALTH CARE APPLICATIONS” (The Procter & Gamble Company, published 2023).

Some results are limits rather than exact numbers.

The target of data set [1] is T1, ICAM-1 extracellular domain (C-terminal His) (Homo sapiens, UniProt P05362 SEQ:1-453). Kind of data set: ITC; 37 C, potassium phosphate; 1.27 nM at 33 C (tighter). The conditions noted are these: tags: C-terminal His6; Ray-Biotech 228-21751-2. How it is done:
(§1) Aptamers as disclosed herein were selected to perform at 37° C. in the SELEX selection process. Further, all experiments relating to performance of aptamers executed on cells grown in culture were performed at 37° C. as well, as this was the appropriate temperature for optimal cell growth and corresponds to body temperature. However, the aptamers are intended to function on the inner surface of the nasal cavity in vivo and said nasal cells show a slightly lower average temperature of 33° C. As such it was important to ensure that the aptamers of the present invention perform at both temperatures. Accordingly, binding analysis was executed using isothermal titration calorimetry (ITC) using Nano ITC (Low Volume of TA Instruments) and following user instructions for the NasD-4.1 aptamer (SEQ ID NO: 244) at 37° C. as well as at 33° C. Specific mutations in sequence (SEQ ID NO: 264-270) were tested to analyze the impact of temperature and secondary structure. 600 nM concentration of the NasD-4.1 aptamer was injected in 11 injections of 4.88 uL each into a 100 nM concentration of ICAM-1 receptor protein in a volume of 193 uL. The same concentration of mutant aptamer was injected into buffer, as well as buffer was injected into the same amount of protein as controls. The ITC experiments were performed at 33° C. and 37° C. in potassium phosphate buffer.

For data set [2], the target named is T1, ICAM-1 extracellular domain (C-terminal …). Kind of data set: ITC; 37 C, potassium phosphate; 9.09 nM at 33 C. The conditions noted are these: tags: C-terminal His6; Ray-Biotech 228-21751-2. As to the method: as §1
Data set [3] shares this target. In words: ITC; 37 C, potassium phosphate; 10 nM at 33 C. The conditions noted are these: tags: C-terminal His6; Ray-Biotech 228-21751-2. As to the method:
as §1

For data set [4] the target is unchanged. Kind of data set: ITC; 37 C, potassium phosphate; 37 nM at 33 C (weaker). To be noted: tags: C-terminal His6; Ray-Biotech 228-21751-2. As to the method: as §1
For data set [5] the target is unchanged. In words: ITC; 37 C, potassium phosphate; 14.3 nM at 33 C. To be noted: tags: C-terminal His6; Ray-Biotech 228-21751-2. As to the method: as §1
The target is the same in data set [6]. In words: ITC; 37 C, potassium phosphate; 18.1 nM at 33 C. The conditions noted are these: tags: C-terminal His6; Ray-Biotech 228-21751-2. As to the method:
as §1

Data set [7] shares this target. In words: ITC; 37 C, potassium phosphate; 8.86 nM at 33 C. The conditions noted are these: tags: C-terminal His6; Ray-Biotech 228-21751-2; label: FAM in cell assay; hairpin with dangling 5' and 3' ends. How it is done:
as §1

For data set [8], the target named is T2, ICAM-1 (on cells) (Homo sapiens, UniProt P05362 SEQ:28-532). Kind of data set: HNEpC cells, 2 h, 500 nM; RH-30 below 500 RFU. To be noted: tags: endogenous on HNEpC (PromoCell C-21060) or H1-HeLa cells; label: FAM in cell assay; hairpin with dangling 5' and 3' ends. As to the method: (§2) Fluorescein amidite (FAM)-conjugated DNA aptamers were incubated at 500 nM onto cells cultured in 24-well plates for 4 hours at 37° C. in 5% CO2. At specific timepoints (0.5h, 1h, 2h, 4h), the cell media was aspirated, and the wells were washed three times with 1× selection buffer. To elute and lyse the cells, 200ul of 6M urea was applied to the well and incubated at 37° C. for 5 minutes. The urea-aptamer solution was transferred and measured in a 96-well microplate reader at 495 nm absorbance. Samples were measured in triplicate. FIGS. 23 to 26 show the results.
T2 sequence (P05362 28-532): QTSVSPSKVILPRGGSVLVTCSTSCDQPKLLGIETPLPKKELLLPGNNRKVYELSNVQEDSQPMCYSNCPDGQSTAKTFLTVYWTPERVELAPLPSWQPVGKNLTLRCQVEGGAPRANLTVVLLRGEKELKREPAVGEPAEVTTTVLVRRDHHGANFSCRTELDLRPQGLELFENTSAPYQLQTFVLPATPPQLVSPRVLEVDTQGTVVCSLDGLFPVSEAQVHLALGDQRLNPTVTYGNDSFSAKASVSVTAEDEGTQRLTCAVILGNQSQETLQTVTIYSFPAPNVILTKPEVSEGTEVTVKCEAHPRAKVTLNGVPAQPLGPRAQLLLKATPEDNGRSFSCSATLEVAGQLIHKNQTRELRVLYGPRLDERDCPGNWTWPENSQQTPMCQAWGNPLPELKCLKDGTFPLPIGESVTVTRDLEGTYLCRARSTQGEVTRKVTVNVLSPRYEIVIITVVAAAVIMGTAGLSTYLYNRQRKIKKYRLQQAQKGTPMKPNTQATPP
Maximal binding can be seen after 2 hours, wherein the absolute number of the truncated sequence bound to HNEpC is 2.5 times of the number of the parent aptamer bound. Binding to RH-30 cells is similar for both aptamers, truncated sequence (SEQ ID NO: 244) and parent sequence (SEQ ID NO: 104) and below 500 RFU.

The target of data set [9] is T2, ICAM-1 (on cells). Kind of data set: HNEpC cells, FAM-RNA 500 nM, 37 C; qPCR binding higher than to HEK293. The conditions noted are these: tags: endogenous on HNEpC (PromoCell C-21060) or H1-HeLa cells.
Data set [10] has as its target T1, ICAM-1 extracellular domain (C-terminal …). Kind of data set: SPR; aptamer immobilized on gold chip; 250 nM ICAM-1. To be noted: tags: C-terminal His6; Ray-Biotech 228-21751-2. As to the method:
(§3) After conjugation of the cystamine moeities to phosphoramidate bonds at the 5′ phosphate group, the aptamer was immobilized on a gold chip by depositing an aliquot of 10 nL of aptamer solution at a concentration of 10 μM onto the surface of the chip. The gold reduces the cystamine to a pair of thiols and then catalyzes the reduction reaction that results in the covalent bond between the gold surface and the thiol groups of the modified aptamers.
(§4) Solutions of 200 μL of ICAM-1 protein or human serum albumin were flown over the gold chip at a concentration of 250 nM and a flow rate of 50 μL/min using an Openplex Surface Plasmon Resonance System (Horiba, Kyoto, Kyoto, Japan). Thus, the association phase lasted for 4 minutes after injection and was immediately followed by the disassociation phase. The total resonance of the negative control aptamer was subtracted from the total resonance observed for each of the candidate aptamers. The result corresponds to the resonance contribution due to the binding of the protein to the aptamer.
where Rmax is the maximum resonance due to binding observed, and c is the concentration of the injectant. Finally, the dissociation equilibrium constant kD was calculated as the ratio of kd over ka (see Table 2). The low nanomolar kD values obtained for the different aptamers confirm the strong binding affinity of such molecules towards ICAM-1 and validate the aptamer selection process described in Example 1. As used herein, “kd” refers to the dissociation rate, “ka” refers to the association rate, and “kD” refers to the dissociation equilibrium constant.

The next data set deals with human serum albumin (Homo sapiens, UniProt P02768 P02768:25-609). In words: SPR; 250 nM HSA, no significant binding. As to the method: as §3, §4
Chain of human serum albumin (P02768 25-609, one chain of several): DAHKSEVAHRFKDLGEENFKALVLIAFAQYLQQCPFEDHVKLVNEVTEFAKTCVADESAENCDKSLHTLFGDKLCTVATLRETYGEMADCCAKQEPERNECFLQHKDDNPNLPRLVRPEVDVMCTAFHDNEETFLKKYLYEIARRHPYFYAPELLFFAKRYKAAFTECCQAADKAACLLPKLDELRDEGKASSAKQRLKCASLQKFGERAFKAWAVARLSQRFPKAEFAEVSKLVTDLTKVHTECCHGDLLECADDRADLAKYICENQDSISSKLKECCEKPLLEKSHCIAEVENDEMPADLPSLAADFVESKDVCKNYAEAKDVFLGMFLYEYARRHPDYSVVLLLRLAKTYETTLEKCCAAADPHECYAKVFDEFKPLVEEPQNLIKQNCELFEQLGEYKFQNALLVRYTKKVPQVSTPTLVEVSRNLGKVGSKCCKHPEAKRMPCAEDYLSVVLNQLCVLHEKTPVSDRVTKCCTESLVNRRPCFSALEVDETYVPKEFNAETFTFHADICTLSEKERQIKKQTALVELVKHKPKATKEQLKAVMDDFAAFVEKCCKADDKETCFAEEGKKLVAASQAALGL
Data set [11] deals with T1, ICAM-1 extracellular domain (C-terminal …). In words: ITC; 37 C, potassium phosphate; 7.96 nM at 33 C. The conditions noted are these: tags: C-terminal His6; Ray-Biotech 228-21751-2. How it is done:
as §1

For data set [12], the target named is T2, ICAM-1 (on cells). In words: HNEpC cells, 0.5 h, 500 nM; RH-30 hardly detectable. To be noted: tags: endogenous on HNEpC (PromoCell C-21060) or H1-HeLa cells; label: FAM. How it is done: as §2
Maximal binding of the truncated sequence Nas.D-5 (SEQ ID NO: 245) can be observed after 0.5 hours, wherein more than 2 times of the truncated aptamers bound to HNEpC compared to the parent aptamer. Binding to RH-30 cells was hardly detectable (FIG. 25). […] The absolute number of bound oligonucleotides of the truncated aptamer (SEQ ID NO: 246) is again higher than the number of bound oligonucleotides of the parent sequence (SEQ ID NO: 108).

T1 sequence (P05362 28-480): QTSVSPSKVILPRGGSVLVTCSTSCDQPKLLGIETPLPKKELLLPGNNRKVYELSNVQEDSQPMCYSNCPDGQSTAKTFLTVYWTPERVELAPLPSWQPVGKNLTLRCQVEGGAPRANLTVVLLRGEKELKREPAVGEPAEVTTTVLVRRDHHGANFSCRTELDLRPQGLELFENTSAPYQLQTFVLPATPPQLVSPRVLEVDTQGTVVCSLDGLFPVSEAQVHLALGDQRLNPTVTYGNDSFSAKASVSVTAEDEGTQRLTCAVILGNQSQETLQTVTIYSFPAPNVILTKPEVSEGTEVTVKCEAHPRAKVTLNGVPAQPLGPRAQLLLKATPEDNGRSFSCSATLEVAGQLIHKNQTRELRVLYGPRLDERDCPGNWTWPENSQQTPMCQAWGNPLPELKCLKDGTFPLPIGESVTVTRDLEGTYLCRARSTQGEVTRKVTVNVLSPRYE

In [1], GTGCTCAGTTGTCAATCTAAGACTGCTGCTGAGGAAG (ssDNA) [NasD-4.1 State 6] showed a Kd of 18.6 nM. GTGCTCAGTTGTCAAAGAATGACTGCTGCTGAGGAAG (ssDNA) [NasD-4.1 State 7] showed a dissociation constant Kd in [2] of 6.77 nM. On to GAGCTCAGTTGTCAATCTATGACTGCTGCTGAGGAAG (ssDNA) [NasD-4.1 State 2], for which the dissociation constant (Kd) in [3] stood at 102 nM. Take GTGCTCACTTGTCAATCTATGACTGCTGCTGAGTAAG (ssDNA) [NasD-4.1 State 4]: in data set [4], binding was characterised by a dissociation constant (Kd) of 6.39 nM. In data set [5], GTGCTCACTTGTCAATCTATGACTGCTGCTCAGGAAG (ssDNA) [NasD-4.1 State 3] registered a dissociation constant Kd of 40.4 nM. Consider GTGGTCAGTTGTGAATCTATGACTGCTGCTGAGGAAG (ssDNA) [NasD-4.1 State 1], for which binding in data set [6] was characterised by a dissociation constant (Kd) of 2.83 nM. In data set [7], GTGCTCAGTTGTCAATCTATGACTGCTGCTGAGGAAG (ssDNA) [Nas.D-4.1] came in with a Kd of 11.2 nM. This molecule also came in with a binding signal with ICAM-1 (on cells) [8] of 2.5 fold vs parent Nas.D-4.

B1: Nas.R-4 (ssRNA)
RNA: GGGUGCAUCGUUUACGCGCAACAUAAAAAUUUAAAGUGCUCAGUUGUCAAUCUAUGACUGCUGCUGAGGAAGGAUAUGAG
modifications: 2'-F pyrimidines (all C and U)
Turning to B1, the binding signal with ICAM-1 (on cells) [9] was determined as 11 % surface bound. This molecule showed an equilibrium dissociation constant (Kd) in data set [10] of 44.3 nM. For the same molecule, the binding result in the data set with human serum albumin was “no binding”.

B2: Nas.R-2 (ssRNA)
RNA: GGGUGCAUCGUUUACGCAGAUAGCAGCAGGAAUCAAGCGGUAGGAGUCUAGCAGAAGCUGCUGCUGAGGAAGGAUAUGAG
modifications: 2'-F pyrimidines (all C and U)
As for B2, the binding signal in the data set with ICAM-1 (on cells) [9] amounted to 17 % surface bound. The affinity in data set [10], expressed as Kd, was 70.2 nM. In addition, the binding result with human serum albumin is listed as “no binding”. Molecule GTGCTCTCTTGTCAATCTATGACTGCTGGAGAGGAAG (ssDNA) [NasD-4.1 State 5] registered a Kd in data set [11] of 5.14 nM.

B3: Nas.R-1 (ssRNA)
RNA: GGGUGCAUCGUUUACGCGAUUAGUCUGAUAAACAAAAAGAUUUCGCUAAAAAUCAAUCUGCUGCUGAGGAAGGAUAUGAG
modifications: 2'-F pyrimidines (all C and U)
B3 returned a Kd in [10] of 64.4 nM. For the same molecule, the binding result with human serum albumin was “no binding”.

B4: Nas.R-8 (ssRNA)
RNA: GGGUGCAUCGUUUACGCGUAAAAAUUAAAGAGAUUAAGGUCCUUAAGCAGUUUUGUCCUGCUGCUGAGGAAGGAUAUGAG
modifications: 2'-F pyrimidines (all C and U)
Regarding B4, the binding signal with ICAM-1 (on cells) [9] was found to be 12 % surface bound. In data set [10], the Kd was determined as 28.4 nM. Also, in the data set with human serum albumin, the binding result is recorded as “no binding”.

GGGCGCACCGTTTACGCGTAAATCGGTCCGCTATT (ssDNA) [Nas.D-5.1] returned a binding signal with ICAM-1 (on cells) [12] above 2 fold vs parent Nas.D-5.
